Experimental data reported in the Human Domainome abundance scans (Beltran et al. 2025).

B1: V(D)J recombination-activating protein 2, residues 415 to 491; numbered along this chain, P55895 (parent)
chain: YWITCCPTCDVDINTWVPFYSTELNKPAMIYCSHGDGHWVHAQCMDLAERTLIHLSAGSNKYYCNEHVEIARALHTP

Variants of: B1
Assay: abundance fitness (aPCA) (normalised: wild type 0, dead -1); higher = more abundant; growth selection in yeast, the domain comes from the species named
Conditions: Homo sapiens

Abundance fitness, by site and new letter:
N60: T -0.022 | M -0.081 | W -0.207 | R -0.058 | Q -0.069 | V -0.04 | C -0.209 | P -0.118 | S -0.062 | E 0.046 | I -0.045 | D 0.01 | F -0.273 | H -0.084 | A 0.002 | K -0.114 | G -0.017
G58: V -0.161 | C -0.061 | P -0.013 | H 0.013 | D 0.016 | F -0.221 | Q 0.025 | I -0.003 | M -0.11 | K -0.063 | T -0.199 | A -0.049 | Y -0.126 | W -0.06 | L 0.025 | R -0.165 | S -0.038 | N -0.426 | E 0.041
V68: G 0 | N -0.219 | K -0.115 | W -0.076 | R -0.163 | Q -0.495 | E -0.439 | C -0.019 | P -0.125 | Y -0.335 | M -0.087 | L -0.08 | I -0.318 | A -0.173
I53: D -0.184 | S 0.049 | H -0.069 | L -0.02 | A 0.154 | W -0.124 | G 0.007 | V -0.048 | T 0.004 | P -0.163 | C -0.056 | E -0.194 | Y -0.133 | R -0.011 | M 0.041 | N 0.244 | F -0.013
R72: A 0.138
T51: Y -0.068 | R 0.034 | V -0.043 | W -0.412 | P -0.203 | S -0.039 | N -0.191
I70: C 0.176 | R 0.015 | E -0.093 | P -0.216 | G -0.045 | S -0.145 | H -0.205 | L 0.03 | M 0.02 | D 0.112 | Y 0.064 | Q -0.036 | N -0.169 | F -0.002 | K -0.139
H54: S -0.002 | A 0.004 | G 0.035 | W -0.064 | P -0.007 | R -0.056 | K 0.112 | V 0.008 | E 0.02 | D 0.042 | M -0.087 | N -0.061 | Y -0.183 | T -0.12 | C 0.001 | F -0.602 | L 0.016 | Q -0.277
E69: A -0.092 | Q 0.147 | D 0.052 | V -0.14 | S 0.075 | P 0.358 | C -0.355 | R 0.035 | T 0.007 | M 0.18 | W 0.071 | Y -0.328 | G 0 | K -0.183
E66: Q -0.057 | L 0.01 | K -0.099 | S -0.039 | H -0.22 | M 0.048 | W -0.192 | R -0.127 | V -0.105 | A -0.025 | F -0.193 | N -0.381 | G 0.006 | T -0.063 | P -0.231 | C 0.023 | I -0.17
S56: I -0.113 | P -0.074 | F -0.052 | Y 0.052 | C -0.099 | E 0.058 | K 0.029 | H -0.038 | W -0.07 | D -0.04 | N -0.194 | Q -0.031 | G 0.005 | A 0.078 | L -0.046 | V 0.005 | T 0.004
A71: T 0.09 | N -0.121 | S -0.04 | E 0.085 | C -0.033 | K -0.225 | V -0.003 | L 0.027 | Q 0.044 | H -0.179 | Y 0.124 | R 0.026 | M -0.12 | I -0.008 | W -0.207 | P -0.03 | D -0.038 | G -0.051
N65: Q -0.181 | C -0.138 | E 0.058 | K -0.047 | M -0.12 | W 0.036 | S 0.079 | V 0.008 | R 0.079 | Y -0.318 | P 0.016 | I 0.185 | F -0.172 | G 0.012 | L 0.008 | H 0.003 | T -0.005 | A 0.001
L55: C 0.04 | R -0.111 | Q 0.027 | G -0.18 | A -0.108 | S -0.011 | H 0.085 | K -0.019 | V -0.082 | N -0.062 | D -0.152 | Y -0.027 | P -0.218 | E -0.051 | T -0.174 | M -0.026 | F -0.06 | W -0.086
K61: S -0.116 | V 0.069 | G 0.06 | N -0.115 | C -0.098 | L 0.158 | T -0.045 | R -0.287 | E -0.002 | A 0.017 | W -0.159 | Q 0.097
Y63: H -0.012 | W 0.115 | E -0.068 | V -0.051 | I 0.036 | S -0.18 | A -0.048 | D -0.207 | M -0.171 | R -0.049 | F -0.002 | K -0.005 | G -0.377 | C 0.188
S59: W -0.225 | E 0.002 | H -0.043 | Y -0.031 | P 0.062 | C -0.005 | I 0.103 | T 0.02 | A 0.078 | M -0.042 | G 0.019 | R -0.115 | V -0.068 | N -0.25 | Q -0.224 | K 0.053 | L -0.087 | F -0.088
H67: W -0.484 | G -0.116 | M -0.579 | Q -0.348 | D -0.424 | N -0.32 | I -0.874 | L -0.741 | F -0.485 | C -0.031 | S -0.196 | P -0.369 | K -0.388 | V -0.387 | R -0.253 | T -0.22
C64: Y -0.712 | P -0.822 | M -1.06 | S -0.803 | L -1.07 | V -0.557 | H -0.962 | Q -0.768 | T -1.05 | R -0.945 | G -0.935 | W -0.901 | A -1.01 | K -0.842 | E -1.05 | F -0.851
L52: V -0.033 | C -0.145 | P -0.423 | I -0.186 | Y -0.318 | Q -0.006 | D -0.31 | N -0.304 | A -0.144 | F -0.211 | T -0.161 | S -0.262 | W -0.006 | H -0.597 | R -0.358 | E -0.258
A57: H 0.091 | S 0.048 | T -0.121 | I 0.216 | W -0.276 | E -0.03 | G -0.068 | C -0.124 | V -0.14 | K -0.111 | P -0.029 | Y -0.108 | D 0.04 | M -0.156 | N 0.057
Y62: Q -0.312 | H -0.377 | M -0.206 | A -0.328 | L -0.304 | P -0.67 | F -0.003 | R -0.561 | T -0.152 | I -0.281 | D -0.558 | G -0.495 | W 0.067 | K -0.6 | V -0.342 | N -0.469 | C -0.442
